From patent publication US20190185532A1 (UNIVERSITY OF BIRMINGHAM, published 2019)
Changes are numbered by the printed parent chain.

Key:
Assay in all cases: flow cytometry on transfected HEK293T cells
[1] = target: T1, CLEC14A^C103S (GFP tag, expressed in HEK293T) (human, UniProt Q86T13 22-490)
T1 construct: not shown: C-terminal GFP tag from vector pEGFP-N1
T1 sequence: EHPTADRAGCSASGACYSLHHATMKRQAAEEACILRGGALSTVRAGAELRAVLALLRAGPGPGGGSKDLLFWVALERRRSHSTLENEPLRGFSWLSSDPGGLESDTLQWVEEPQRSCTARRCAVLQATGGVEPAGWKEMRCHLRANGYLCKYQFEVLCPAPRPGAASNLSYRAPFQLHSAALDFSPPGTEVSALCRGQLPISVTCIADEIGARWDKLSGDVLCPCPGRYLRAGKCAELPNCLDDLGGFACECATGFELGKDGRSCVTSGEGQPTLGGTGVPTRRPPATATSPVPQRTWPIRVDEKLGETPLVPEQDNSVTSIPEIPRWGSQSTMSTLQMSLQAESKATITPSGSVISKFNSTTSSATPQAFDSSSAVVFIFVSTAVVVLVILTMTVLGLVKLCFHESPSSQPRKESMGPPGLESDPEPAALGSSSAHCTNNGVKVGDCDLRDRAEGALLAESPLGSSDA

[2] = target: T2, CLEC14A^C138S (GFP tag, expressed in HEK293T) (human, UniProt Q86T13 22-490)
T2 construct: not shown: C-terminal GFP tag from vector pEGFP-N1
T2 sequence: T1 sequence with S82C, C117S

[3] = target: T3, CD93^C104S (GFP tag, expressed in HEK293T) (human, UniProt Q9NPY3 22-652)
T3 construct: not shown: C-terminal GFP tag from vector pEGFP-N1
T3 sequence: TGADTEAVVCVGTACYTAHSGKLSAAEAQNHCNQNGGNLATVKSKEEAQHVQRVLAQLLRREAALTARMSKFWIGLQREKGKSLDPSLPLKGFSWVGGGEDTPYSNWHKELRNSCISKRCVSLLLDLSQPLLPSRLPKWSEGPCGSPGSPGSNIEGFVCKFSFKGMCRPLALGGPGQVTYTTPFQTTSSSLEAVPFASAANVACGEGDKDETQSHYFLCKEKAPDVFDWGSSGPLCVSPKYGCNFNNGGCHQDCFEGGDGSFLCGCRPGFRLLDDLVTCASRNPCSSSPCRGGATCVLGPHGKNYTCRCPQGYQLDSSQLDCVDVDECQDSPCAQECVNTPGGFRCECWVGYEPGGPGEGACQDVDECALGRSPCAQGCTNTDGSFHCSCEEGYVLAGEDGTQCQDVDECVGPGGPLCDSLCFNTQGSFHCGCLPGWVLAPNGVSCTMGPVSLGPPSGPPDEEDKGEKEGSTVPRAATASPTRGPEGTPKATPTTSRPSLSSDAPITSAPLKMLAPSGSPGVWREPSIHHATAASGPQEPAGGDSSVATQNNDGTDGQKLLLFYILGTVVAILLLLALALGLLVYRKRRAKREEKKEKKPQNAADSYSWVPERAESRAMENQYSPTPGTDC

[4] = target: T4, CD93^C136S (GFP tag, expressed in HEK293T) (human, UniProt Q9NPY3 22-652)
T4 construct: not shown: C-terminal GFP tag from vector pEGFP-N1
T4 sequence: T3 sequence with S83C, C115S

binding result [1]: no binding (tested: 20 µg/mL) | binding result [2]: no binding (tested: 20 µg/mL) | binding result [3]: no binding (tested: 20 µg/mL) | binding result [4]: no binding (tested: 20 µg/mL)
B1: biotinylated MMRN2^495-674 (human, expressed in E. coli with a His tag and a BirA tag) (ligand)
chain: QKLYLDLDVIREGQRDATRALEETQVSLDERRQLDGSSLQALQNAVDAVSLAVDAHKAEGERARAATSRLRSQVQALDDEVGALKAAAAEARHEVRQLHSAFAALLEDALRHEAVLAALFGEEVLEEMSEQTPGPLPLSYEQIRVALQDAASGLQEQALGWDELAARVTALEQASEPPRP
modifications: biotin on the BirA tag
notes: Used for staining of transfected HEK293T cells in flow cytometry, detected with streptavidin-PE; not shown: BirA tag and His tag (vector pET23a)
